Assay results taken from article PMC11142274 (bioRxiv, 2024).

T1: Tom70-EGFP-CNPase-ALFAtag (Mus musculus (assumed))
T1 chain: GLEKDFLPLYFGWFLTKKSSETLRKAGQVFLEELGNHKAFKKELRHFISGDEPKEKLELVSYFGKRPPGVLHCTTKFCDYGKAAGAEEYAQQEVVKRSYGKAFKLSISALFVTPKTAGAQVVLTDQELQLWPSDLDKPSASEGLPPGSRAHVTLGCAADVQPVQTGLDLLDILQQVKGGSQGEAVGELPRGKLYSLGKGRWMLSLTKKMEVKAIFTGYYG


Legend:
[1] = target: T2, full-length mouse CNPase (Mus musculus, UniProt P16330); experiment: DSF thermal shift
[2] = target: T3, mouse CNPase catalytic domain (mouse, UniProt P16330); experiment: SEC-SAXS
[3] = target: T3, mouse CNPase catalytic domain; experiment: ITC
[4] = target: T2, full-length mouse CNPase; experiment: enzyme inhibition kinetics
[5] = target: T1, Tom70-EGFP-CNPase-ALFAtag; experiment: co-localisation with a target anchored to mitochondria
[6] = target: T2, full-length mouse CNPase; experiment: nanoDSF thermal shift
[7] = target: T3, mouse CNPase catalytic domain; experiment: SEC-SAXS; remark: listed apart in the source

T2 sequence (P16330 whole entry, the tested form may be a part): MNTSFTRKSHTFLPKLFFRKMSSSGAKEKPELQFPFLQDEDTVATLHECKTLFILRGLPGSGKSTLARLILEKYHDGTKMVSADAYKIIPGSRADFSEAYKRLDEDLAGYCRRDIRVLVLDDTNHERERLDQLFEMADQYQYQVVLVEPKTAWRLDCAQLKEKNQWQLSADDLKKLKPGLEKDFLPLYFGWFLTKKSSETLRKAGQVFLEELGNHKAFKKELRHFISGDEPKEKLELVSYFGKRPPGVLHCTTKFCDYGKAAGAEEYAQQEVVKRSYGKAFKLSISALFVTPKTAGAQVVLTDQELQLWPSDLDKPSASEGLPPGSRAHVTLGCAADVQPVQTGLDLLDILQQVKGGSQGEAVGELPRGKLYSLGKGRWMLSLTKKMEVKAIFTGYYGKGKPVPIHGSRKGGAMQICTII

stoichiometry N [2] | Kd [3] [nM] | dH [3] [kcal/mol] | stoichiometry N [3] | Ki [4] [nM] | binding result [5] | stoichiometry N [7] | Binder | ΔTm of CNPase [1] [°C] | ΔTm of CNPase [6] [°C]
2 molecules of CNPase per 10E molecule | 9.8 | -12.1 | 0.804 | 0.604 ± 0.0507 | – | – | anti-CNPase nanobody NbCNP 10E (VHH) VHH: EVQLEESGGGLVQPGGSLRLSCAVSGITLDDFGIGWFRQAPGKEREGVACISPGYEHIYYADSAKGRFTISRDNAKNTVYLQMNNLKPWDTGVYYCAADNDLPDRLWGGSDWSDPSPYDYWGQGTQVTVSS | 4.2 | –
– | – | – | – | – | binds | – | iNbCNP 10E fused to mRuby3 (VHH) VHH: EVQLEESGGGLVQPGGSLRLSCAVSGITLDDFGIGWFRQAPGKEREGVACISPGYEHIYYADSAKGRFTISRDNAKNTVYLQMNNLKPWDTGVYYCAADNDLPDRLWGGSDWSDPSPYDYWGQGTQVTVSS | – | –
– | 13.4 | -18.1 | 0.836 | – | – | – | MaBP-10E (His6-maltose binding protein fusion of NbCNP 10E) (VHH) VHH: EVQLEESGGGLVQPGGSLRLSCAVSGITLDDFGIGWFRQAPGKEREGVACISPGYEHIYYADSAKGRFTISRDNAKNTVYLQMNNLKPWDTGVYYCAADNDLPDRLWGGSDWSDPSPYDYWGQGTQVTVSS | – | –
– | – | – | – | – | – | – | anti-CNPase nanobody NbCNP 8D (VHH) VHH: EVQLEESGGGLVQPGGSLRLSCAASGFTFSSYVMSWVRQAPGKGLEWVSDINSGGSRTYYTDSVKGRFTISRDNAKNTLYLQMNSLKPEDTAVYYCARDSLLSTRYLHTSERGQGTQVTVSS | 18 | 17.7
– | – | – | – | – | binds | – | iNbCNP 8D fused to mRuby3 (VHH) VHH: EVQLEESGGGLVQPGGSLRLSCAASGFTFSSYVMSWVRQAPGKGLEWVSDINSGGSRTYYTDSVKGRFTISRDNAKNTLYLQMNSLKPEDTAVYYCARDSLLSTRYLHTSERGQGTQVTVSS | – | –
– | 83.3 | -14.2 | 0.863 | – | – | 1 | anti-CNPase nanobody NbCNP 7E (VHH) VHH: EVQLEESGGGWVHPGGSLRLSCAASGNVFGVNTMAWYRQAPGKQREQRELVASITDYGTTEYADSVKGRFTISGDNAKATVYLQMNSLKPEDTAVYYCNMDLTVMTATSSLYAYDYWGQGTQVTVSS | 2.1 | –
– | 16.6 | -7.07 | 0.914 | – | – | 1 | anti-CNPase nanobody NbCNP 8C (VHH) VHH: EVQLEESGGGLVQAGGSLTLSCAASGFTFDDYAMGWYRQAPGKERVGVSCISRTDGYTYYLDSVKGRFTISTDHAKHTVYLQMNNLKPDDTGLYYCAADADPEYGSRCPDPYYGMDYWGKGILVTVSS | 9.2 | –
